From PMC5040590, “A model for regulation by SynGAP-α1 of binding of synaptic proteins to PDZ-domain 'Slots' in the postsynaptic density” (eLife, 2016) come the findings set out here.

This experiment addresses CaM-Sepharose 4B (calmodulin on Sepharose resin) (UniProt P62157 1-149). Nature of the experiment: pull-down; equilibrium binding of purified synGAP (1-500 nM, 300 µl) to 50 µl CaM-Sepharose 4B, 60 min; 50 mM Tris pH 7.5, 200 mM NaCl, 5 mM TCEP, 2 mM CaCl2; bound protein by quantitative immunoblot; hyperbolic fit. The conditions noted are these: both partners purified. For orientation: A western blot detects proteins with antibodies after separation by electrophoresis.

B1: sr-synGAP (residues 103-725) (domain or fragment)
chain: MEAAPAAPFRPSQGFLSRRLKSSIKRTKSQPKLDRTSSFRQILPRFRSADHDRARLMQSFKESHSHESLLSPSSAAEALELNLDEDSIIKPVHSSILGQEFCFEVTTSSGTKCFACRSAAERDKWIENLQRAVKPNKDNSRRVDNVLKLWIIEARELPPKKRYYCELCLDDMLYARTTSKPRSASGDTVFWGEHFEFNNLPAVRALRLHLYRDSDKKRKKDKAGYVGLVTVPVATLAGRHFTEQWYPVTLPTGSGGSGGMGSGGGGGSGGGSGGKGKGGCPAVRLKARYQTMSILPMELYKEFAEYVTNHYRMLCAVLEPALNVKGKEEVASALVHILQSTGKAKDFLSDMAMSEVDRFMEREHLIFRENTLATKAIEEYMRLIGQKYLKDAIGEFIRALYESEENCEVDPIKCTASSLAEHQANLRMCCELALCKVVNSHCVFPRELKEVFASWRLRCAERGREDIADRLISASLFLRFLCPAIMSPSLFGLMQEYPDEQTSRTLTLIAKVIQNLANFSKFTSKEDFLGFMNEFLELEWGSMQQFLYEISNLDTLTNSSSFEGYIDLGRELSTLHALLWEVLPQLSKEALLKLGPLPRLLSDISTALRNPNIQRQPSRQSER
Usually Kd stands for a measure of binding affinity in units of concentration. High values mean weaker binding, low ones tighter binding. On to B1, for which the Kd came out at 210 ± 30 nM.
